Patent WO2017055393A1

Legend:
[1] = molecular target: human Tim-3 (T cell Immunoglobulin- and Mucin domain-containing molecule 3) (human) (UniProt Q8TDQ0); experiment: FACS, 10 ug/ml PE-labeled antibody on EOL-1 cells (24h pre-treated with 10 ng/ml PMA); geom. mean MFI sample / isotype control
[2] = molecular target: human Tim-3 (T cell Immunoglobulin- and Mucin domain-containing molecule 3) (human) (UniProt Q8TDQ0); experiment: FACS, 10 ug/ml PE-labeled antibody on Karpas-299 cells; geom. mean MFI sample minus isotype control
[3] = molecular target: human Tim-3 (T cell Immunoglobulin- and Mucin domain-containing molecule 3) (human) (UniProt Q8TDQ0); experiment: FACS, 10 ug/ml PE-labeled antibody on CMK cells; geom. mean MFI sample minus isotype control
[4] = molecular target: human Tim-3 (T cell Immunoglobulin- and Mucin domain-containing molecule 3) (human) (UniProt Q8TDQ0); experiment: FACS, 10 ug/ml PE-labeled antibody on Kasumi-1 cells; geom. mean MFI sample minus isotype control
[5] = molecular target: human Tim-3 (T cell Immunoglobulin- and Mucin domain-containing molecule 3) (human) (UniProt Q8TDQ0); experiment: FACS, 10 ug/ml PE-labeled antibody on SR cells; geom. mean MFI sample / isotype control
[6] = molecular target: human Tim-3 (T cell Immunoglobulin- and Mucin domain-containing molecule 3) (human) (UniProt Q8TDQ0); experiment: FACS, 10 ug/ml PE-labeled antibody on KG-1 cells; geom. mean MFI sample / isotype control
[7] = molecular target: human Tim-3 (T cell Immunoglobulin- and Mucin domain-containing molecule 3) (human) (UniProt Q8TDQ0); experiment: FACS, 10 ug/ml PE-labeled antibody on RPMI-8226 cells; geom. mean MFI sample minus isotype control
[8] = molecular target: human Tim-3 (T cell Immunoglobulin- and Mucin domain-containing molecule 3) (human) (UniProt Q8TDQ0); experiment: FACS, 10 ug/ml PE-labeled antibody on Pfeiffer cells; geom. mean MFI sample / isotype control
[9] = molecular target: human Tim-3 (T cell Immunoglobulin- and Mucin domain-containing molecule 3) (human) (UniProt Q8TDQ0); experiment: FACS, 10 ug/ml PE-labeled antibody on SR cells; geom. mean MFI sample minus isotype control
[10] = molecular target: human Tim-3 (T cell Immunoglobulin- and Mucin domain-containing molecule 3) (human) (UniProt Q8TDQ0); experiment: FACS, 10 ug/ml PE-labeled antibody on TF-1 cells; geom. mean MFI sample minus isotype control
[11] = molecular target: human Tim-3 (T cell Immunoglobulin- and Mucin domain-containing molecule 3) (human) (UniProt Q8TDQ0); experiment: FACS, 10 ug/ml PE-labeled antibody on RPMI-8226 cells; geom. mean MFI sample / isotype control
[12] = molecular target: human Tim-3 (T cell Immunoglobulin- and Mucin domain-containing molecule 3) (human) (UniProt Q8TDQ0); experiment: FACS, 10 ug/ml PE-labeled antibody on Pfeiffer cells; geom. mean MFI sample minus isotype control
[13] = molecular target: human Tim-3 (T cell Immunoglobulin- and Mucin domain-containing molecule 3) (human) (UniProt Q8TDQ0); experiment: FACS, 10 ug/ml PE-labeled antibody on TF-1 cells; geom. mean MFI sample / isotype control
[14] = molecular target: human Tim-3 (T cell Immunoglobulin- and Mucin domain-containing molecule 3) (human) (UniProt Q8TDQ0); experiment: FACS, 10 ug/ml PE-labeled antibody on CMK cells; geom. mean MFI sample / isotype control
[15] = molecular target: human Tim-3 (T cell Immunoglobulin- and Mucin domain-containing molecule 3) (human) (UniProt Q8TDQ0); experiment: FACS, 10 ug/ml PE-labeled antibody on KG-1 cells; geom. mean MFI sample minus isotype control
[16] = molecular target: human Tim-3 (T cell Immunoglobulin- and Mucin domain-containing molecule 3) (human) (UniProt Q8TDQ0); experiment: FACS, 10 ug/ml PE-labeled antibody on Kasumi-1 cells; geom. mean MFI sample / isotype control
[17] = molecular target: human Tim-3 (T cell Immunoglobulin- and Mucin domain-containing molecule 3) (human) (UniProt Q8TDQ0); experiment: FACS, 10 ug/ml PE-labeled antibody on EOL-1 cells (24h pre-treated with 10 ng/ml PMA); geom. mean MFI sample minus isotype control
[18] = molecular target: human Tim-3 (T cell Immunoglobulin- and Mucin domain-containing molecule 3) (human) (UniProt Q8TDQ0); experiment: FACS, 10 ug/ml PE-labeled antibody on Karpas-299 cells; geom. mean MFI sample / isotype control

Sequence of human Tim-3 (T cell Immunoglobulin- and Mucin domain-containing molecule 3) (human) (Q8TDQ0 22-301): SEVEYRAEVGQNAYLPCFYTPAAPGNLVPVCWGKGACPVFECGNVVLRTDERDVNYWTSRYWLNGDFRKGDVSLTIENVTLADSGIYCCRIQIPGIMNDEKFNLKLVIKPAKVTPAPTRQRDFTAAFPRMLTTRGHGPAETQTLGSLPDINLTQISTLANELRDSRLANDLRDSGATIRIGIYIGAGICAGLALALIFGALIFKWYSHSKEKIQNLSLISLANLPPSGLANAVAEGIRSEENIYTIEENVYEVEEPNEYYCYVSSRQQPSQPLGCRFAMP

RFI (ratio of specific binding) [1]: 2 RFI
MFI (specific binding) [2]: 247 MFI
MFI (specific binding) [3]: 384 MFI
MFI (specific binding) [4]: 164 MFI
RFI (ratio of specific binding) [5]: 19 RFI
RFI (ratio of specific binding) [6]: 5 RFI
MFI (specific binding) [7]: 1790 MFI
RFI (ratio of specific binding) [8]: 51 RFI
MFI (specific binding) [9]: 1050 MFI
MFI (specific binding) [10]: 229 MFI
RFI (ratio of specific binding) [11]: 23 RFI
MFI (specific binding) [12]: 3610 MFI
RFI (ratio of specific binding) [13]: 3 RFI
RFI (ratio of specific binding) [14]: 5 RFI
MFI (specific binding) [15]: 363 MFI
RFI (ratio of specific binding) [16]: 4 RFI
MFI (specific binding) [17]: 207 MFI
RFI (ratio of specific binding) [18]: 3 RFI
Substance: PE labeled anti-TIM3 (clone 344823, R&D) (antibody)
